B1: mHOIL-1L_(1–140) (domain or fragment, mouse, UniProt Q9WUB0 1-140, looked up)
chain: MDEKTKKAEEMALSLARAVAGGDEQAAIKYATWLAEQRVPLRVQVKPEVSPTQDIRLCVSVEDAYMHTVTIWLTVRPDMTVASLKDMVFLDYGFPPSLQQWVVGQRLARDQETLHSHGIRRNGDGAYLYLLSARNTSLNP
notes: mouse HOIL-1L, LTM and UBL, aa 1-140; Used as SPR analyte and in the crystal; also called HOIL-1L LTM-UBL (aa 1–140); mHOIL-1L containing UBL (aa 1–140)
B2: mSHARPIN_(163–341) (domain or fragment, mouse, UniProt Q91WA6 163-341, looked up)
chain: SSGNFKKEELATRLSQAIAGGDEKAAAQVAAVLAQHHVALNVQLMEAWFPPGPIRLQVTVEDATSVLSSSSSAHVSLKIHPHCSIAALQDQVFSEFGFPPAVQRWVIGRCLCMPERSLASYGVSQDGDPAFLYLLSAPREVSGQSLQNSKMDRKLGLFPQSLGLPHDLQPSSSSLPSPS
B3: mSHARPIN_(163–301) (domain or fragment, mouse, UniProt Q91WA6 163-301, looked up)
chain: SSGNFKKEELATRLSQAIAGGDEKAAAQVAAVLAQHHVALNVQLMEAWFPPGPIRLQVTVEDATSVLSSSSSAHVSLKIHPHCSIAALQDQVFSEFGFPPAVQRWVIGRCLCMPERSLASYGVSQDGDPAFLYLLSAPR
notes: No tag is named for these experiments; it may be the same MBP fusion as m12; also called SHARPIN LTM-UBL
B4: MBP-mSHARPIN UBL_(163–301) (domain or fragment, mouse, UniProt Q91WA6 163-301, looked up)
chain: B3 chain
notes: not shown: MBP, N-terminal, kept
B5: GST-mHOIP D-UBA (aa 466–630) UBA2^mut (domain or fragment, mouse, UniProt Q924T7 466-630, looked up)
chain: SCGDPEKQRQDKMRKEGLQLVSMIQEGETAGASPEEVFSALQYSGTEVPLQWLRSELSYVLEMVAELAGQQDPELGAFSCQEARKAWLDRHGNLDEAVEECVRARRRKVHELQSLGFGPKEGSLQALFQHGGDVARALTELARQRAEPAHQRLWDRDPEPTPCWD
notes: also called UBA2^mut [Q607A/L611A/F614A]; not shown: GST, N-terminal, kept
B6: GST-mHOIP D-UBA (aa 466–630) UBA1^mut (domain or fragment, mouse, UniProt Q924T7 466-630, looked up)
chain: B5 chain with R9A, L18A, V21A, A142Q, A146L, A149F
notes: also called UBA1^mut [R474A/L483A/V486A]; not shown: GST, N-terminal, kept
B7: GST-mHOIP_(466–630) (domain or fragment, mouse, UniProt Q924T7 466-630, looked up)
chain: B5 chain with A142Q, A146L, A149F
notes: Captured on the SPR chip via an anti-GST antibody; also called mHOIP fragment containing the UBA domains; not shown: GST, N-terminal, kept
B8: mHOIP_(474–630) (domain or fragment, mouse, UniProt Q924T7 474-630, looked up)
chain: RQDKMRKEGLQLVSMIQEGETAGASPEEVFSALQYSGTEVPLQWLRSELSYVLEMVAELAGQQDPELGAFSCQEARKAWLDRHGNLDEAVEECVRARRRKVHELQSLGFGPKEGSLQALFQHGGDVARALTELQRQRLEPFHQRLWDRDPEPTPCWD
notes: also called double-UBA (D-UBA) domain

Positions count from the first letter of the chain named. In names and notes the source's numbering stands.

For assay [1], the target named is B7. Put plainly: SPR. The conditions noted are these: response read at end of injection (about 185 s); GST-mHOIP D-UBA WT immobilized with anti-GST antibody; parent: est. 270; read off a plot.
The assay “mHOIP_(474–630)” has as its target B8. As to the kind of experiment: SEC; analytical size-exclusion chromatography of the LUBAC core subunits. The conditions noted are these: both partners purified.
The assay “mSHARPIN_(163–341)” addresses B2. Put plainly: crystal structure; LUBAC ternary complex core; sitting-drop vapor diffusion at 20°C, 1.8 M magnesium sulfate, 0.1 M MES pH 6.5; 2.4 Å. The conditions noted are these: both partners purified.
For assay [2], the target named is B7. As to the kind of experiment: SPR; GST-mHOIP D-UBA (aa 466–630; WT or mutant) immobilised on the sensor chip via an anti-GST antibody; one UBL-containing fragment alone as analyte. The conditions noted are these: both partners purified.
The assay “mHOIL-1L_(1–140)” concerns the target B1. As to the kind of experiment: SEC; analytical size-exclusion chromatography of the LUBAC core subunits. The conditions noted are these: both partners purified.
In another assay the target is T1, mHOIL-1L_(1–189)-strep (mouse, UniProt Q9WUB0 1-189).
T1 construct: mouse HOIL-1L LTM-UBL, aa 1-189; Captured on the SPR chip with an anti-strep antibody; also called HOIL-1L_(1–189) (LTM-UBL); not shown: strep, C-terminal, kept
T1 sequence (looked up): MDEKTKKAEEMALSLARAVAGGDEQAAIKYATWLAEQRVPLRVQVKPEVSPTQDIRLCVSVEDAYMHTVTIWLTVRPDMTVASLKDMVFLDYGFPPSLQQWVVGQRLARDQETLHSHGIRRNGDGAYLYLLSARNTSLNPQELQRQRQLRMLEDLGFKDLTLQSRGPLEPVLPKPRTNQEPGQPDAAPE
Put plainly: SPR; mHOIL-1L_(1–189)-strep immobilised on the sensor chip with anti-strep antibody; MBP-mSHARPIN fragments as analytes. The conditions noted are these: both partners purified.

The target of assay [3] is T2, mHOIL-1L_(1–140) and mSHARPIN_(163–301) applied together (mouse, UniProt Q9WUB0 1-140; Q91WA6 163-301).
T2 construct: mouse HOIL-1L aa 1-140, as m2; The two fragments were mixed and applied together as one SPR analyte; they heterodimerise through their LTMs; also called the two UBL-containing proteins applied simultaneously; both proteins together
T2 sequence (looked up) 1: B1 chain
T2 sequence (looked up) 2: B3 chain
As to the kind of experiment: SPR; GST-mHOIP D-UBA (aa 466–630; WT or mutant) immobilised via an anti-GST antibody; HOIL-1L and SHARPIN fragments applied together as analytes (500 mg/ml each as printed); stability judged by dissociation. The conditions noted are these: both partners purified.

As to “mHOIL-1L_(1–140) and mSHARPIN_(163–301) applied together (from UniProt Q9WUB0;Q91WA6) mSHARPIN: L176A; I180A”, in the assay with GST-mHOIP_(466–630) [1], the response amounted to 70 RU.
The same measure, in the same setting: the figure for “mHOIL-1L_(1–140) and mSHARPIN_(163–301) applied together (from UniProt Q9WUB0;Q91WA6) mHOIL-1L: L15A; V19A” is 90 RU.
For B1, the “stoichiometry N” value with mHOIP_(474–630) stood at 1. Moreover, in the assay with mSHARPIN_(163–341), the binding result is “binds”. In the assay with GST-mHOIP_(466–630) [2], this molecule came in with a dissociation constant (Kd) of 1340 nM.
In the case of B2, the “stoichiometry N” value in the assay with mHOIP_(474–630) and with mHOIL-1L_(1–140) was 1 each time.
Regarding B3, in the assay with GST-mHOIP_(466–630) [2], binding was put at a Kd of 16000 nM.
On to B4, for which, in the assay with mHOIL-1L_(1–189)-strep, binding was put at a Kd of 2040 nM and the koff came to 0.00361 s⁻¹.
Regarding B5, in assay [3], the binding result was “binds”.
On the same count and under the same terms, then B6, with “binds”.
As for B7, the koff in assay [3] came out at 0.000111 s⁻¹.
Consider B8, for which the binding result with mSHARPIN_(163–341) is recorded as “binds”.

The record behind these values is publication PMC6044281, “Cooperative Domain Formation by Homologous Motifs in HOIL-1L and SHARPIN Plays A Crucial Role in LUBAC Stabilization” (Cell reports, 2018).
